Measured values: US20220002384A1 (published 2022)

T1: AXL (R&D Systems cat#154-AL) (UniProt P30530 26-440)
T1 chain: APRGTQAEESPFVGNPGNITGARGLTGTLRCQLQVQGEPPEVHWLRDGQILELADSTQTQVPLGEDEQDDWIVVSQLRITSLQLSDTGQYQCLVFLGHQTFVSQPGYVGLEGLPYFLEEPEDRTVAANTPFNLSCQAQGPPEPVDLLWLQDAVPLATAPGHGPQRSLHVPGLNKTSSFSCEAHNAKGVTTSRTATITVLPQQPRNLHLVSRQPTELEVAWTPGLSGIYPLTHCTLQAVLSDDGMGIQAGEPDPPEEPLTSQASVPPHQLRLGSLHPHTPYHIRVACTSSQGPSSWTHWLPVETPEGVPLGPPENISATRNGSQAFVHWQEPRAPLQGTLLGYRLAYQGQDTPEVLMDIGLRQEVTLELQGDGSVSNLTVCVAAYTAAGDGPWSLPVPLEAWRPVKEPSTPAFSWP


Target: T1, AXL (R&D Systems cat#154-AL)
Assay: BLI

Kd [nM] | Binder
4 | AXL #44 (designed binder) NVSPPRRARVTDATETTITIRWEGRGVIGFQVDAVPANGQTPIQRTIKPDVRSYTITGLQPGTDYKIYLYTLPNIGTGHFSSSPVVIDAST
12 | AXL #56 (designed binder) NVSPPRRARVTDATETTITISWRVSPSTVVGLQVDAVPANGQTPIQRTIKPDVRSYTITGLQPGTDYKIYLYTLNVIGGSAHASSPVVIDAST
